Biological target: purified soluble human HM1.24 antigen (HA-tagged, from soluble human HM1.24 antigen-expressing CHO cells) (human)
Experiment: sandwich ELISA with purified antigen at 5000-fold dilution (about 76.4 ng/mL) captured by anti-HA antibody; lowest measurable antibody concentration

measurement limit: 500 pg/mL
Substance: reshaped human anti-HM1.24 antibody (humanized anti-HM1.24 antibody), light chain version a and heavy chain version s
